{
  "source": "patent US20050054617A1",
  "about": "“Use of potent, selective and non toxic c-kit inhibitors for treating mastocytosis” (priority 2001, published 2005)",
  "origin": "cited, not measured here",
  "tested_on": "systemic mastocytosis",
  "conditions": "person, infiltration of bone marrow, skin and gastric mucosa; recurrence after four months",
  "data": [
    {"molecule": "INFγ: interferon used in the art for mastocytosis (protein, UniProt P01579 24-161, looked up) Interferon gamma: QDPYVKEAENLKKYFNAGHSDVADNGTLFLGILKNWKEESDRKIMQSQIVSFYFKLFKNFKDDQSIQKSVETIKEDMNVKFFNSNKKKRDDFEKLTNYSVTDLNVQRKAIHELIQVMAELSPAAKTGKRKRSQMLFRG", "values": [
      {"measurement": "clinical outcome in systemic mastocytosis", "result": "improvement of the clinical situation and gastrointestinal and hematological signs"}
    ]}
  ]
}
